Ho/Con_2aH and He/Con_2aH data for 40 molecules are collected here from patent publication US20150344570A1 (published 2015).

Assay [1] addresses T1, FcγRIIa H (FcγRIIa type H, His at position 131), extracellular domain with C-terminal His tag (human, UniProt P12318 34-217).
T1 construct: extracellular domain; also called FcgRIIa H; 2aH
T1 sequence (looked up): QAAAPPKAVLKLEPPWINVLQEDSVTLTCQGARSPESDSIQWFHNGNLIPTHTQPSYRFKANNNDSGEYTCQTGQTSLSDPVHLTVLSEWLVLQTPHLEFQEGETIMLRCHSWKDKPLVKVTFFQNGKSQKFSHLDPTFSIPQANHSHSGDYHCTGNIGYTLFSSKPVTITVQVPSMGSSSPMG
As to the kind of experiment: SPR Biacore, relative binding, GpH7-B3/GpL16-k0 (HoCon Ab)=100. Background: In SPR one partner is held on a chip, and binding of the other changes the refractive index at the surface.

In assay [2] the target is T1, FcγRIIa H (FcγRIIa type H, His at …). The experiment in a line: SPR Biacore, relative binding, GpH7-A5/GpH7-B3/GpL16-k0 (HeCon Ab)=100. The protocol:
Analysis of interaction between objective antibody and the FcγR was carried out using Biacore T100 (GE Healthcare). HBS-EP+ (GE Healthcare) was used as the running buffer, and the measurement temperature was set to 25° C. Chips produced by immobilizing the antigen peptide by the amine coupling method to a Series S Sencor Chip CM5 (GE Healthcare), or alternatively, chips produced by allowing preliminarily biotinylated antigen peptides to interact with and immobilize onto a Series S Sensor Chip SA (certified) (GE Healthcare) were used. Antibodies of interest were captured onto an antigen peptide-immobilized chip, and allowed to interact to each FcγR diluted with running buffer. To regenerate and repeatedly use the chip, the antibodies captured on the chip were washed off by reacting 10 mM glycine-HCl, pH 1.5.

B1: GpH7-B3 variant S337_14T/GpL16-k0 (antibody, human IgG1, kappa)
heavy: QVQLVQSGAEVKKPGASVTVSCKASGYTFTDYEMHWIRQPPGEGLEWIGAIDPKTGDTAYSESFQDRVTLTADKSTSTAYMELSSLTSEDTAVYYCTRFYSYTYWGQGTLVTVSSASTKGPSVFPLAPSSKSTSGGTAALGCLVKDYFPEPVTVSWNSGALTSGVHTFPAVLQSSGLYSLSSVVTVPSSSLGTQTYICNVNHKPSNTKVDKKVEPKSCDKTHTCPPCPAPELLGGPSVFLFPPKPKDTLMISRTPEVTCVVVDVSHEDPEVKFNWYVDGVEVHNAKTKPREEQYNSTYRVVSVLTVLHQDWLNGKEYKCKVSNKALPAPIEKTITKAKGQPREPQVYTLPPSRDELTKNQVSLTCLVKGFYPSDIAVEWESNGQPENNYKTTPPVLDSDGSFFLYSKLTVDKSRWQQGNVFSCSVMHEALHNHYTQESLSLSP
light: DIVMTQSPLSLPVTPGEPASISCQASESLVHSNRNTYLHWYLQKPGQSPQLLIYKVSNRFSGVPDRFSGSGSGTDFTLKISRVEAEDVGVYYCSQNTHVPPTFGQGTKVEIERTVAAPSVFIFPPSDEQLKSGTASVVCLLNNFYPREAKVQWKVDNALQSGNSQESVTEQDSKDSTYSLSSTLTLSKADYEKHKVYACEVTHQGLSSPVTKSFNRGEC
notes: both H chains mutated; also called Ho Ab
Consider B1, for which, in assay [1], the Ho/Con_2aH is 105 % of control.

B2: GpH7-A5/GpH7-B3 variant I332_02A/GpL16-k0 (antibody, human IgG1, kappa)
heavy 1: not shown
heavy 2: not shown
light: B1 light
notes: one H chain mutated; also called He Ab
Regarding B2, in assay [2], the He/Con_2aH is 111 % of control.

B3: GpH7-B3 variant T335_01G/GpL16-k0 (antibody, human IgG1, kappa)
heavy: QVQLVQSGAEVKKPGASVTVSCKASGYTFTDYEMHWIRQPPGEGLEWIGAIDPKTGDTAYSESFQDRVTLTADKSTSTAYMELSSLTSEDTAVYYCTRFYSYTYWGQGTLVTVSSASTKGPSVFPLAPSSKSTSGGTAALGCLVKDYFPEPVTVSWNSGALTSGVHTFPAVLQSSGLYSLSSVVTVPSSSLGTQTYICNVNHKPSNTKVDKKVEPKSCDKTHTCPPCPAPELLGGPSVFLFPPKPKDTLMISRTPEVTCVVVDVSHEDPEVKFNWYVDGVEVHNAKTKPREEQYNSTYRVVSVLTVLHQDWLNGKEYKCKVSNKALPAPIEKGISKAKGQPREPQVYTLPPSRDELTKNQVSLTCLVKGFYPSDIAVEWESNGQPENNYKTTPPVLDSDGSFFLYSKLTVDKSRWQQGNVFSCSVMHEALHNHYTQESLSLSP
light: B1 light
notes: as for B1
With B3, the Ho/Con_2aH in assay [1] was 101 % of control.

B4: GpH7-A5/GpH7-B3 variant K326_14T/GpL16-k0 (antibody, human IgG1, kappa)
heavy 1: not shown
heavy 2: not shown
light: B1 light
notes: as for B2
Regarding B4, in assay [2], the He/Con_2aH was 114 % of control.

B5: GpH7-A5/GpH7-B3 variant I332_04F/GpL16-k0 (antibody, human IgG1, kappa)
heavy 1: not shown
heavy 2: not shown
light: B1 light
notes: as for B2
As for B5, the He/Con_2aH in assay [2] is 104 % of control.

B6: GpH7-A5/GpH7-B3 variant K334_07[ (read as K334_07I)/GpL16-k0 (antibody, human IgG1, kappa)
heavy 1: not shown
heavy 2: not shown
light: B1 light
notes: as for B2
B6: in assay [2], the He/Con_2aH is 110 % of control.

B7: GpH7-A5/GpH7-B3 variant A330_12R/GpL16-k0 (antibody, human IgG1, kappa)
heavy 1: not shown
heavy 2: not shown
light: B1 light
notes: as for B2
Turning to B7, in assay [2], the He/Con_2aH was 108 % of control.

B8: GpH7-A5/GpH7-B3 variant H268_18N/GpL16-k0 (antibody, human IgG1, kappa)
heavy 1: not shown
heavy 2: not shown
light: B1 light
notes: as for B2
With B8, in assay [2], the He/Con_2aH is 112 % of control.

B9: GpH7-B3 variant T335_15Y/GpL16-k0 (antibody, human IgG1, kappa)
heavy: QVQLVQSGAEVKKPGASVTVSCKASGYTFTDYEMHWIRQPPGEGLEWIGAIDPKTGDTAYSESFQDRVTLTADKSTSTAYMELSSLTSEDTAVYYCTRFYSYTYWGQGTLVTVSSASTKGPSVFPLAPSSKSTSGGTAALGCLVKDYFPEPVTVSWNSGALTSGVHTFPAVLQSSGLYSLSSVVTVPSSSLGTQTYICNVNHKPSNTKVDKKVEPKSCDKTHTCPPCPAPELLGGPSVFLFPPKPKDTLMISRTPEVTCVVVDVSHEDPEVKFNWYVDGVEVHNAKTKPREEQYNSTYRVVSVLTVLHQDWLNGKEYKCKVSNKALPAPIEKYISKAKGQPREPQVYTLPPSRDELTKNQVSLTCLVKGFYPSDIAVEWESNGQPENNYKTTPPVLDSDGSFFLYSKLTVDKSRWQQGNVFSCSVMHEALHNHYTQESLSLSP
light: B1 light
notes: as for B1
On to B9, for which the Ho/Con_2aH in assay [1] was 102 % of control.

B10: GpH7-A5/GpH7-B3 variant I336_06M/GpL16-k0 (antibody, human IgG1, kappa)
heavy 1: not shown
heavy 2: not shown
light: B1 light
notes: as for B2
As for B10, the He/Con_2aH in assay [2] is 106 % of control.

B11: GpH7-A5/GpH7-B3 variant I332_15Y/GpL16-k0 (antibody, human IgG1, kappa)
heavy 1: not shown
heavy 2: not shown
light: B1 light
notes: as for B2
With B11, the He/Con_2aH in assay [2] is 115 % of control.

B12: GpH7-A5/GpH7-B3 variant I332_18N/GpL16-k0 (antibody, human IgG1, kappa)
heavy 1: not shown
heavy 2: not shown
light: B1 light
notes: as for B2
As to B12, the He/Con_2aH in assay [2] is 110 % of control.

B13: GpH7-B3 variant T335_16H/GpL16-k0 (antibody, human IgG1, kappa)
heavy: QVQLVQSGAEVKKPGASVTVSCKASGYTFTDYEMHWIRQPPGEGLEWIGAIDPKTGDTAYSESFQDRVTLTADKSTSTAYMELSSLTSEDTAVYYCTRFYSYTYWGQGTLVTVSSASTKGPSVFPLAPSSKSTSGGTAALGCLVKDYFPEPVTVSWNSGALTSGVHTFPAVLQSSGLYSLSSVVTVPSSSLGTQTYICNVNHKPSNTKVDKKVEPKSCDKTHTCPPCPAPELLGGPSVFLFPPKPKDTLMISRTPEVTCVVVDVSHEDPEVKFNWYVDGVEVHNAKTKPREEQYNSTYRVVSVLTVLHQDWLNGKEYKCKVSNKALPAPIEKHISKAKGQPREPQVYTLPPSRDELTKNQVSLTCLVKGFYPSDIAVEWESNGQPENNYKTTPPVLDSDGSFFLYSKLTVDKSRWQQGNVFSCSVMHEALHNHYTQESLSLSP
light: B1 light
notes: as for B1
As for B13, the Ho/Con_2aH in assay [1] was 100 % of control.

B14: GpH7-A5/GpH7-B3 variant K326_10E/GpL16-k0 (antibody, human IgG1, kappa)
heavy 1: not shown
heavy 2: not shown
light: B1 light
notes: as for B2
With B14, the He/Con_2aH in assay [2] is 102 % of control.

B15: GpH7-A5/GpH7-B3 variant I332_06M/GpL16-k0 (antibody, human IgG1, kappa)
heavy 1: not shown
heavy 2: not shown
light: B1 light
notes: as for B2
As to B15, in assay [2], the He/Con_2aH is 110 % of control.

B16: GpH7-A5/GpH7-B3 variant K326_19Q/GpL16-k0 (antibody, human IgG1, kappa)
heavy 1: not shown
heavy 2: not shown
light: B1 light
notes: as for B2
Take B16: the He/Con_2aH in assay [2] was 101 % of control.

B17: GpH7-A5/GpH7-B3 variant K334_03V/GpL16-k0 (antibody, human IgG1, kappa)
heavy 1: not shown
heavy 2: not shown
light: B1 light
notes: as for B2
As for B17, the He/Con_2aH in assay [2] is 109 % of control.

B18: GpH7-B3 variant T335_13S/GpL16-k0 (antibody, human IgG1, kappa)
heavy: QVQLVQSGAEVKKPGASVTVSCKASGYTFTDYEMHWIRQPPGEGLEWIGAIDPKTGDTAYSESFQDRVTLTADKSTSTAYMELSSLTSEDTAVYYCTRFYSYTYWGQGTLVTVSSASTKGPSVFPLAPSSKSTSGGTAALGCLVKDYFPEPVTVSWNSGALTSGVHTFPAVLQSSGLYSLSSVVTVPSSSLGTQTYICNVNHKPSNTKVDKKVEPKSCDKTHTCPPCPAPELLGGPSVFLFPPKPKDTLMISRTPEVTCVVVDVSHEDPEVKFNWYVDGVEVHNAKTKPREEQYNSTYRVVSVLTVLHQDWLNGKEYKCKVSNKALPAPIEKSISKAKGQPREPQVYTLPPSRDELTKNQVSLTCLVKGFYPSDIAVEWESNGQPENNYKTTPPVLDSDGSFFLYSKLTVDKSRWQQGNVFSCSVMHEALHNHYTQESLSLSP
light: B1 light
notes: as for B1
Take B18: the Ho/Con_2aH in assay [1] was 101 % of control.

B19: GpH7-B3 variant T335_07I/GpL16-k0 (antibody, human IgG1, kappa)
heavy: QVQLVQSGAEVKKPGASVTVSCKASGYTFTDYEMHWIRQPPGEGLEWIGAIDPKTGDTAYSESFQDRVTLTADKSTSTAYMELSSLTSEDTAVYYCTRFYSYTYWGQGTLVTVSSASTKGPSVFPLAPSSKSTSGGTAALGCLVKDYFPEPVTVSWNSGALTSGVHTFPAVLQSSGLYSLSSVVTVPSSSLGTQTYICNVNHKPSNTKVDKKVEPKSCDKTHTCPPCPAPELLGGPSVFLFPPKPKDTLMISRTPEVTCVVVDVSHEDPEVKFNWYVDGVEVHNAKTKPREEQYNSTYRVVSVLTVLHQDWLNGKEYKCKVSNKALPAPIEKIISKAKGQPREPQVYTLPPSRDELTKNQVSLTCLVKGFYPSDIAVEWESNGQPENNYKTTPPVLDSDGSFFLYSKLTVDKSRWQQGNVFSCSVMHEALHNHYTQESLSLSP
light: B1 light
notes: as for B1
Regarding B19, in assay [1], the Ho/Con_2aH was 105 % of control.

B20: GpH7-A5/GpH7-B3 variant I332_16H/GpL16-k0 (antibody, human IgG1, kappa)
heavy 1: not shown
heavy 2: not shown
light: B1 light
notes: as for B2
B20: the He/Con_2aH in assay [2] was 109 % of control.

B21: GpH7-A5/GpH7-B3 variant I332_09D/GpL16-k0 (antibody, human IgG1, kappa)
heavy 1: not shown
heavy 2: not shown
light: B1 light
notes: as for B2
On to B21, for which the He/Con_2aH in assay [2] was 118 % of control.

B22: GpH7-A5/GpH7-B3 variant K334_04F/GpL16-k0 (antibody, human IgG1, kappa)
heavy 1: not shown
heavy 2: not shown
light: B1 light
notes: as for B2
Turning to B22, the He/Con_2aH in assay [2] is 106 % of control.

B23: GpH7-A5/GpH7-B3 variant K326_09D/GpL16-k0 (antibody, human IgG1, kappa)
heavy 1: not shown
heavy 2: not shown
light: B1 light
notes: as for B2
On to B23, for which the He/Con_2aH in assay [2] is 110 % of control.

B24: GpH7-B3 variant T335_10E/GpL16-k0 (antibody, human IgG1, kappa)
heavy: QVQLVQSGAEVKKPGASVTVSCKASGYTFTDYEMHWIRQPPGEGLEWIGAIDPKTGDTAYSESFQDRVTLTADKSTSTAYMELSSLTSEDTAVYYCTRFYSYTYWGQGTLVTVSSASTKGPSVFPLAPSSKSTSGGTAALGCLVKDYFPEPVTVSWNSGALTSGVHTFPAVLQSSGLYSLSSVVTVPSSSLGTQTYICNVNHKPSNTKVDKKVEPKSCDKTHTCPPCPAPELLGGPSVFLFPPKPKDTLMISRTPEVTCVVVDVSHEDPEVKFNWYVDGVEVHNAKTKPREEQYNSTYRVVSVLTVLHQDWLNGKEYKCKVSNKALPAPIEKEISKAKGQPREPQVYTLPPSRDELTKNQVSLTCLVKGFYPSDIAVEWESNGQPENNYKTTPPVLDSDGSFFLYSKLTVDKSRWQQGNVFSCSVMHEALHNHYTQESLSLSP
light: B1 light
notes: as for B1
Turning to B24, the Ho/Con_2aH in assay [1] is 105 % of control.

B25: GpH7-A5/GpH7-B3 variant I332_19Q/GpL16-k0 (antibody, human IgG1, kappa)
heavy 1: not shown
heavy 2: not shown
light: B1 light
notes: as for B2
With B25, in assay [2], the He/Con_2aH is 108 % of control.

B26: GpH7-A5/GpH7-B3 variant G236_03V/GpL16-k0 (antibody, human IgG1, kappa)
heavy 1: not shown
heavy 2: not shown
light: B1 light
notes: as for B2
As for B26, in assay [2], the He/Con_2aH is 119 % of control.

B27: GpH7-A5/GpH7-B3 variant H268_09D/GpL16-k0 (antibody, human IgG1, kappa)
heavy 1: not shown
heavy 2: not shown
light: B1 light
notes: as for B2
Take B27: the He/Con_2aH in assay [2] is 133 % of control.

B28: GpH7-A5/GpH7-B3 variant K334_08L/GpL16-k0 (antibody, human IgG1, kappa)
heavy 1: not shown
heavy 2: not shown
light: B1 light
notes: as for B2
As for B28, in assay [2], the He/Con_2aH was 104 % of control.

B29: GpH7-A5/GpH7-B3 variant I332_13S/GpL16-k0 (antibody, human IgG1, kappa)
heavy 1: not shown
heavy 2: not shown
light: B1 light
notes: as for B2
In the case of B29, in assay [2], the He/Con_2aH was 110 % of control.

B30: GpH7-B3 variant S337_16H/GpL16-k0 (antibody, human IgG1, kappa)
heavy: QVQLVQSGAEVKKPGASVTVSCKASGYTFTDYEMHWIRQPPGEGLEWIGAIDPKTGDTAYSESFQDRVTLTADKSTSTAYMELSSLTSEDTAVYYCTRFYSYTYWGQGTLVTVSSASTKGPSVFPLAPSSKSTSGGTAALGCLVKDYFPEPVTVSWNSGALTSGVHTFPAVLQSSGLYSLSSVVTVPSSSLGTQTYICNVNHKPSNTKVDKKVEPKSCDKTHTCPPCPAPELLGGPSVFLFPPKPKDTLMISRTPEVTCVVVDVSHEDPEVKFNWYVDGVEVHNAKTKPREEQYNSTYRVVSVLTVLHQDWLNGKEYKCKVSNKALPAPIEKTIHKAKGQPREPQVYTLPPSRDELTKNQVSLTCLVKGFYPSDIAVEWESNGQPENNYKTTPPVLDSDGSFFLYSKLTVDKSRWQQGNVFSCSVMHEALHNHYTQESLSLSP
light: B1 light
notes: as for B1
Consider B30, for which the Ho/Con_2aH in assay [1] is 102 % of control.

B31: GpH7-A5/GpH7-B3 variant H268_10E/GpL16-k0 (antibody, human IgG1, kappa)
heavy 1: not shown
heavy 2: not shown
light: B1 light
notes: as for B2
Regarding B31, the He/Con_2aH in assay [2] was 124 % of control.

B32: GpH7-A5/GpH7-B3 variant I332_10E/GpL16-k0 (antibody, human IgG1, kappa)
heavy 1: not shown
heavy 2: not shown
light: B1 light
notes: as for B2
B32: the He/Con_2aH in assay [2] is 108 % of control.

B33: GpH7-A5/GpH7-B3 variant I332_14T/GpL16-k0 (antibody, human IgG1, kappa)
heavy 1: not shown
heavy 2: not shown
light: B1 light
notes: as for B2
Take B33: in assay [2], the He/Con_2aH was 115 % of control.

B34: GpH7-A5/GpH7-B3 variant I332_03V/GpL16-k0 (antibody, human IgG1, kappa)
heavy 1: not shown
heavy 2: not shown
light: B1 light
notes: as for B2
As to B34, in assay [2], the He/Con_2aH is 105 % of control.

B35: GpH7-A5/GpH7-B3 variant K326_06M/GpL16-k0 (antibody, human IgG1, kappa)
heavy 1: not shown
heavy 2: not shown
light: B1 light
notes: as for B2
Turning to B35, in assay [2], the He/Con_2aH was 103 % of control.

B36: GpH7-A5/GpH7-B3 variant G236_10E/GpL16-k0 (antibody, human IgG1, kappa)
heavy 1: not shown
heavy 2: not shown
light: B1 light
notes: as for B2
Consider B36, for which the He/Con_2aH in assay [2] was 111 % of control.

B37: GpH7-A5/GpH7-B3 variant H268_13S/GpL16-k0 (antibody, human IgG1, kappa)
heavy 1: not shown
heavy 2: not shown
light: B1 light
notes: as for B2
As to B37, the He/Con_2aH in assay [2] was 112 % of control.

B38: GpH7-B3 variant T335_19Q/GpL16-k0 (antibody, human IgG1, kappa)
heavy: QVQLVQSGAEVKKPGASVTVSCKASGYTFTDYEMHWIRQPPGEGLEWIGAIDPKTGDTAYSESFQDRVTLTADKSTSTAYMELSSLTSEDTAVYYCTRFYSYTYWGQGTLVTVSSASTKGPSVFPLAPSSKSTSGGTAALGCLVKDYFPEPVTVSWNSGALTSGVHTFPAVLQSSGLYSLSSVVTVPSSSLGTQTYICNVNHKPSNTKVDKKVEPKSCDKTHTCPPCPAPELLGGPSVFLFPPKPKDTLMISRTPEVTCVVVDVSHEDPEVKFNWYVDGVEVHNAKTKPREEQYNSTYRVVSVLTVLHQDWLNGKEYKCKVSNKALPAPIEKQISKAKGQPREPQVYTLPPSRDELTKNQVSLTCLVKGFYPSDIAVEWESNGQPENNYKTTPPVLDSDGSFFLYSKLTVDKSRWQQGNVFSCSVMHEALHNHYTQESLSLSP
light: B1 light
notes: as for B1
In the case of B38, in assay [1], the Ho/Con_2aH was 103 % of control.

B39: GpH7-A5/GpH7-B3 variant I336_08L/GpL16-k0 (antibody, human IgG1, kappa)
heavy 1: not shown
heavy 2: not shown
light: B1 light
notes: as for B2
Take B39: in assay [2], the He/Con_2aH is 106 % of control.

B40: GpH7-A5/GpH7-B3 variant G236_07I/GpL16-k0 (antibody, human IgG1, kappa)
heavy 1: not shown
heavy 2: not shown
light: B1 light
notes: as for B2
On to B40, for which the He/Con_2aH in assay [2] was 115 % of control.
